{"source": "patent US7521536B2", "about": "“Glutamate transporter associated protein” (The Johns Hopkins University School of Medicine, priority 1999, dated 2009)", "molecules": {"B1": {"name": "GTRAP3-18: glutamate transporter EAAC1 associated protein, 188 amino acids (SEQ ID NO:6), rat JWA protein homologue (protein)", "chain": "MDVNLAPLRAWDDFFPGSDRFARPDFRDISKWNNRVVSNLLYYQTNYLVVAAMMISVVGFLSPFNMILGGIIVVLVFTGFVWAAHNKDILRRMKKQYPTAFVMVVMLASYFLISMFGGVMVFVFGITFPLLLMFIHASLRLRNLKNKLENKMEGIGLKKTPMGIILDALEQQEDSINKFADYISKARE", "modifications": "Rattus"}}, "key": {"EAAT4 [1]": {"system": "EAAT4", "assay": "EAAT4 protein level after cycloheximide treatment, densitometry, HEK-rEAAT4 cells", "type": "cell-based, rat", "details": "12 hrs after cycloheximide, GTRAP coexpressed; HEK-rEAAT4 alone 54±0.6%", "experimental": "To examine changes in the cell surface levels of EAAT4, a cell membrane-impermeant biotinylation reagent to label cell surface proteins selectively. Biotinylation of cell surface proteins was performed as described in Duan et al. (Duan, et al., J. Neurosci. 19, 10193-10200 (1999)). SOD1 was used to control for total protein and to determine whether the biotinylation reagent labels proteins in the intracellular compartment. Densitometry was performed using the NIH Image program.\nHowever it is also possible that there is increased expression of the cell's native gene. To address this question cells were treated 48 hrs after transfection with cycloheximide, an inhibitor of protein synthesis. […] In contrast, 81±2% and 74±1.7% of the EAAT4 protein remains after 12 hrs when GTRAP4-41 and GTRAP4-48 are coexpressed, respectively."}, "EAAT4 [2]": {"system": "EAAT4", "assay": "cerebellar glutamate uptake after intra-cisternal injection of HSV amplicon vectors", "type": "in vivo, rat", "details": "48 hrs after intra-cisternal injection of HSV amplicon vector, vs control HSVlac"}, "GST-EAAT4": {"target": "T1, GST-EAAT4 (Rattus norvegicus, UniProt O35921)", "T1 construct": "Full-length EAAT4 was subcloned into the EcoR I site of the GST-fusion vector pGEX-6P-1 (Pharmacia); made in house; host or cells: E. coli BL21 (Novagen)", "T1 sequence (O35921 1-561)": "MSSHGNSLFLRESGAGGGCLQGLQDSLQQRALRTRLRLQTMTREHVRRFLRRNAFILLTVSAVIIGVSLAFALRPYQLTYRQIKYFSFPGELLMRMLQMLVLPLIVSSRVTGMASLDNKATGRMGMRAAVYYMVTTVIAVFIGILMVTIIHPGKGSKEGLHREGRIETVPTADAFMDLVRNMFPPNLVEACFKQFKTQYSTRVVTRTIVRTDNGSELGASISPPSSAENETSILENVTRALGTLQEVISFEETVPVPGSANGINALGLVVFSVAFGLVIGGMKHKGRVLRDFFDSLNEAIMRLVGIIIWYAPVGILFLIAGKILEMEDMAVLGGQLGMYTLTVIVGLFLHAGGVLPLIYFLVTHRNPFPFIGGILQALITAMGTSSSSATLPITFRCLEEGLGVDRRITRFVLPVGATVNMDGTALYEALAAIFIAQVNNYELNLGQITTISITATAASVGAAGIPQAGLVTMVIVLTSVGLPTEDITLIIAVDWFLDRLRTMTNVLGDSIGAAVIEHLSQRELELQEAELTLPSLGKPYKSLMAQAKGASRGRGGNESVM", "assay": "in vitro binding to GST-EAAT4 fusion protein", "details": "myc-tagged protein from HEK 293T lysate; no binding to GST", "experimental": "Fusion proteins and in vitro binding. Full-length EAAT4 was subcloned into the EcoR I site of the GST-fusion vector pGEX-6P-1 (Pharmacia). Synthesis of recombinant proteins in BL21 cells (Novagen) was induced by 0.1 mM isopropyl β-D-thiogalactoside for 2 hrs at 30° C. and purified according to the protocol provided by the manufacturer (Pharmacia). HEK 293T cells were transfected with myc-tagged GTRAP4-41 or GTRAP4-48 and harvested in ice-cold immunoprecipitation (IP) buffer (phosphate buffered saline (pH 7.1), 5 mM EDTA, 1 mM sodium orthovanadate, 0.1 mM phenylmethylsulphonyl fluoride (PMSF), 0.3 μM aprotinin and 1% Triton X-100). The cellular lysate was incubated with GST or GST-EAAT4 immobilized on glutathione-Sepharose-4B, and washed to remove non-specifically bound proteins. Specifically bound proteins were eluted with 2×SDS loading buffer and analyzed by immunoblotting using an anti-c-myc antibody.\nGTRAP4-41 and 4-48 Immunoprecipitation with Fusion Proteins. Full-length EAAT4 was subcloned into the EcoR I site of the GST-fusion vector pGEX-6P-1 (Pharmacia). […] Specifically bound proteins were eluted with 3×SDS loading buffer and analyzed by immunoblotting using an anti-c-myc antibody. […]"}, "EAAT4 [3]": {"target": "T2, EAAT4 (Rattus norvegicus, UniProt O35921)", "T2 sequence (O35921 1-561)": "T1 sequence (O35921 1-561)", "assay": "Na+-dependent L-[3H]-glutamate uptake in HEK-rEAAT4 cells transfected with GTRAPs", "type": "cell-based", "parameters": "expressed in transfected cells", "experimental": "To determine function relationships between GTRAPs and glutamate transporter proteins, sodium-dependent, glutamate transport activity was measured in HEK-rEAAT4 cells transfected with one or more interacting proteins.\nTo determine the effects of GTRAPs on glutamate transport function, Na+-dependent glutamate transport activity was measured in cells stably transfected with EAAT4, EAAC1, or another glutamate transporter protein and one or more interacter proteins. Stably transfected cells were grown in a monolayer on 6-well plates in MEM supplemented with 10% fetal bovine serum and L-glutamine. Assays were conducted when cells reached ˜80% confluency. The wells were pre-rinsed twice with 2 ml of ice-cold tissue buffer (50 mM Tris, 320 mM sucrose, pH 7.4). The cells were then incubated for 4 min at 37° C. with 1 ml of either sodium-(120 mM NaCl, 25 mM NaHCO3, 5 mM KCl, 2 mM CaCl2, 1 mM KH2PO4, 1 mM MgSO4, 10% glucose and […]) or choline-(120 mM choline Cl, 25 mM Tris-HCl pH 7.4, 5 mM KCl, 2 mM CaCl2, 1 mM KH2PO4, 1 mM MgSO4, 10% glucose and […]) containing buffer labeled with L-[^3H]Glu. Uptake was stopped by rinsing three times with 2 ml of ice-cold wash buffer (50 mM Tris pH 7.5 and 160 mM NaCl). Cells were solubilized in 1 ml of 0.1 N NaOH, and […] of lysate was analyzed for radioactivity in a scintillation counter. Na^+-dependent uptake was defined as the difference in radioactivity accumulated in Na^+-containing buffer and in choline-containing buffer. Protein content was measured and glutamate uptake calculated as nmole glutamate per mg of protein. In some cases, homogenates were examined for EAAT4, GTRAP4-41 and GTRAP 4-48 protein.\nIn an alternative protocol, HEK-rEAAT4 cells transfected with GTRAP4-41 and GTRAP4-48 were grown in a monolayer on 6-well plates in MEM supplemented with 10% fetal bovine serum and L-glutamine. Assays were conducted about 72 h after transfection using the method of Davis (Davis et al., J Neurosci. 18, 2475-2485 (1998)). […] Glutamate transport was measured by methods described herein."}, "GST-EAAC1": {"target": "T3, GST-EAAC1 (Rattus norvegicus, UniProt P51907)", "T3 construct": "made in house; BL21 is described for GST-EAAT4", "T3 sequence (P51907 1-523)": "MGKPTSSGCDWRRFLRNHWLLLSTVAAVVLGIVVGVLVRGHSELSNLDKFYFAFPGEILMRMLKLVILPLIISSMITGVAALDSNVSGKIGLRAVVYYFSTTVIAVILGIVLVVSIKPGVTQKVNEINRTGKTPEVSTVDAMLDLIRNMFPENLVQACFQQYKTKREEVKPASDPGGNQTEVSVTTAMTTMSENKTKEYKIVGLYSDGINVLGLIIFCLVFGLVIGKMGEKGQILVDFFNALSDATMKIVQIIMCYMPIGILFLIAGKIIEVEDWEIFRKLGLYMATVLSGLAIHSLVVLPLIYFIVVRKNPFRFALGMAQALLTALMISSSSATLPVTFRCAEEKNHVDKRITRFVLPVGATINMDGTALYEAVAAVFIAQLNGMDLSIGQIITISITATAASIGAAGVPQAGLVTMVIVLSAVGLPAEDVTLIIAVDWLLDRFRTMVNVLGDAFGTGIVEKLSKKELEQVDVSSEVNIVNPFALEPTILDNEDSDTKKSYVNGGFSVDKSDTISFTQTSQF", "assay": "in vitro cell-free binding to immobilized GST-EAAC1", "details": "[35S]-labeled protein; not to GST alone", "experimental": "The interaction of GTRAP3-18 with EAAC1 was examined using in vitro and in vivo methods. For in vitro cell-free binding, EAAC1 was expressed as a fusion protein with glutathione S-transferase (GST), and GTRAP3-18 was produced and labeled with [^35S]-methionine by in vitro transcription and translation. Purified GST or GST-EAAC1 fusion proteins immobilized on glutathione-Sepharose were incubated with [^35S]-labeled GTRAP3-18 protein."}, "EAAT4 [4]": {"target": "T2, EAAT4", "assay": "sodium-dependent [3H]-glutamate transport in HEK293 cells co-expressing EAAT4 and GTRAP3-18", "type": "cell-based", "excerpt": "(§1) To test if GTRAP3-18 modulates EAAC1 function, sodium-dependent [^3H]-glutamate transport was studied in HEK293 cells co-expressing both proteins, 72 hrs after transfection (Rothstein et al. Neuron 16, 675-686 (1996); Lin et al., Neuron 20, 589-602 (1998)). Total glutamate transport progressively decreases with increasing GTRAP3-18 protein expression (FIG. 4). GTRAP3-18 negatively modulates EAAC1-mediated glutamate transport. GTRAP3-18 inhibited EAAC1-mediated transport, but had no effect on EAAT4 (n=6). The co-expression of GTRAP-3-18 has no effect on total EAAC1 protein expression. Analysis of HEK293 cells by confocal microscopy and surface biotinylation reveal no alteration in the membranous localization of EAAC1. Superoxide dismutase (SOD1) was used as a control. […] This effect is specific for EAAC1; co-expression of GTRAP3-18 with EAAT4 has no effect on transport activity. The inhibition of transport is not due to a decrease of EAAC1 protein level by the co-expression of GTRAP3-18, as quantitated by Western blotting. Similarly, the loss of EAAC1 activity is not due to altered protein trafficking; even at high levels of GTRAP3-18 expression, when little EAAC1-mediated transport is observed, EAAC1 surface expression is unaltered as determined by surface biotinylation and confocal microscopy."}, "EAAC1": {"target": "T4, EAAC1 (Rattus norvegicus, UniProt P51907)", "T4 construct": "For transient expression in HEK 293T cells, full-length EAAC1 cDNA was subcloned into the EcoR I/BamH I site; expressed in transfected cells; host or cells: HEK293 / HEK 293T, transient, pRK5", "T4 sequence (P51907 1-523)": "T3 sequence (P51907 1-523)", "assay": "sodium-dependent [3H]-glutamate transport in HEK293 cells co-expressing EAAC1 and GTRAP3-18", "type": "cell-based", "excerpt": "as §1\nTo evaluate the biochemical nature of altered transport, kinetic analyses were performed with HEK293 cells co-expressing EAAC1 and GTRAP3-18. […] Similar results are observed with other cell lines (COS7 and C6 glioma)."}}, "data": [{"molecule": "GTRAP4-41: glutamate transporter 4 associated protein, 2,388 amino acids (SEQ ID NO:2), 87% identity with β-spectrin III", "values": [{"measurement": "EAAT4 protein remaining", "setting": "EAAT4 [1]", "result": "81±2", "unit": "%"}, {"measurement": "cerebellar glutamate uptake", "setting": "EAAT4 [2]", "result": "elevated"}, {"measurement": "binding to GST-EAAT4 fusion protein", "setting": "GST-EAAT4", "result": "bind"}, {"measurement": "Km", "setting": "EAAT4 [3]; GTRAP co-expressed with EAAT4, EAAT4 alone 7 (GTRAP41 experiment) or 10 (GTRAP48 experiment)", "result": 11, "unit": "µM"}, {"measurement": "Vmax of glutamate uptake", "setting": "EAAT4 [3]; GTRAP co-expressed with EAAT4, EAAT4 alone 222 (GTRAP41 experiment) or 208 (GTRAP48 experiment)", "result": 605, "unit": "pmol/mg/min"}, {"measurement": "increase in glutamate transport", "setting": "EAAT4 [3]; HEK-rEAAT4 cells transfected with the GTRAP, vs vector alone", "result": "two"}]}, {"molecule": "B1", "values": [{"measurement": "binding to immobilized GST-EAAC1", "setting": "GST-EAAC1", "result": "specifically binds"}, {"measurement": "effect on EAAT4 glutamate transport", "setting": "EAAT4 [4]", "result": "no effect"}, {"measurement": "Vmax of glutamate transport", "setting": "EAAC1; EAAC1 and GTRAP3-18 co-expressing cells, EAAC1 only 1.02", "result": 0.99, "unit": "nmol/min/mg protein"}, {"measurement": "Km", "setting": "EAAC1; EAAC1 and GTRAP3-18 co-expressing cells, EAAC1 only Km=9 μM, n=4", "result": 40, "unit": "µM"}, {"measurement": "effect on EAAC1-mediated glutamate transport", "setting": "EAAC1; HEK293 cells, 72 hrs after transfection, n=6", "result": "inhibited"}, {"measurement": "decrease in affinity (Eadie-Scatchard plot of glutamate transport)", "setting": "EAAC1; transfected HEK293 cells, n=4", "result": "4-10 fold"}]}]}
